B1: DOTA-BC8 (BC8 conjugated with p-SCN-Bn-DOTA, batch A) (antibody, V domains shown)
VH: EVKLLESGGGLVQPGGSLKLSCAASGFDFSRYWMSWVRQAPGKGLEWIGEINPTSSTINFTPSLKDKVFISRDNAKNTLYLQMSKVRSEDTALYYCARGNYYRYGDAMDYWGQGTSVTVS
VL: DIALTQSPASLAVSLGQRATISCRASKSVSTSGYSYLHWYQQKPGQPPKLLIYLASNLESGVPARFSGSGSGTDFTLNIHPVEEEDAATYYCQHSRELPFTFGSGTKLEIKR
modifications: p-SCN-Bn-DOTA conjugated, sites not stated; p-SCN-Bn-DOTA conjugated, about 1.5 DOTA per antibody (batch A), sites not stated; Asn-141 partly deamidated to Asp
notes: Chelator conjugate of murine IgG1 BC8; also called unlabeled DOTA-BC8

Tests used:
mouse CD45 (mouse) = mouse CD45 (mouse) (UniProt P06800); test: CD45+ cell-based binding assay of radiolabeled antibody
mouse CD45 (mouse), sequence (P06800 26-1293): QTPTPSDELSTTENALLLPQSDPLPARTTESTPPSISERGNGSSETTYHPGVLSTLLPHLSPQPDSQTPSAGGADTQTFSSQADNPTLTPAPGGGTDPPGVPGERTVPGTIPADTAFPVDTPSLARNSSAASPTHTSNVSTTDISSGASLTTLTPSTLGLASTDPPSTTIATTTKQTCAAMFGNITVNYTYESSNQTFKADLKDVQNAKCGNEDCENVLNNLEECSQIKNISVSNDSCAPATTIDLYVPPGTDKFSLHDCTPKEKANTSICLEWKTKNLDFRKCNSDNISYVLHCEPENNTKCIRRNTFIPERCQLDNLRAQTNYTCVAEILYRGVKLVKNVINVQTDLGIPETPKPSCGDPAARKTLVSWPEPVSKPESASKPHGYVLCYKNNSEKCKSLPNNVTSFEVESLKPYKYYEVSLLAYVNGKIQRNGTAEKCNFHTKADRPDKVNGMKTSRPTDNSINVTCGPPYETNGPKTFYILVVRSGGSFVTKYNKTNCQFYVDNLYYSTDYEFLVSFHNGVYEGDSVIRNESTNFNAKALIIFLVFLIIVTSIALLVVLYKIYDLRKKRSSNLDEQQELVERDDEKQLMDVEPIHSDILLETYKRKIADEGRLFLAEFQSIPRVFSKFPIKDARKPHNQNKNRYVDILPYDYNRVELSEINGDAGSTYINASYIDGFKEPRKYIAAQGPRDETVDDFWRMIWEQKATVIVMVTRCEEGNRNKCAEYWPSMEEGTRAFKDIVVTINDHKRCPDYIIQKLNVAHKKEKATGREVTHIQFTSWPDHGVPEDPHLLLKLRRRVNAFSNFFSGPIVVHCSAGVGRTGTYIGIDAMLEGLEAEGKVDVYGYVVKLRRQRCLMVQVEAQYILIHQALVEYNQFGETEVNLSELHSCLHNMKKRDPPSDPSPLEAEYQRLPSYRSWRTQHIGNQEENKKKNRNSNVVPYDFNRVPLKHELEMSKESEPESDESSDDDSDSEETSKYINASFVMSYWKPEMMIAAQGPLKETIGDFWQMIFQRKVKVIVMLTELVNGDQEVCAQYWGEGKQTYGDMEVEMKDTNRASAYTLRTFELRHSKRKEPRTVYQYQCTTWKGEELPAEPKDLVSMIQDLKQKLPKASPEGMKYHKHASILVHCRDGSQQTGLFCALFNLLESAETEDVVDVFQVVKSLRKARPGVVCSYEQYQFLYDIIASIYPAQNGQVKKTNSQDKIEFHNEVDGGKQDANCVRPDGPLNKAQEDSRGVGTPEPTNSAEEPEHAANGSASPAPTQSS

human CD45 = molecular target: T1, human CD45 (human, UniProt P08575 26-1306); test: flow cytometry on Cytotrol cells, against naïve BC8 as reference
T1 construct: whole, on cells; BC8 is said to recognize all human isoforms; also called leukocyte common antigen (LCA); T200
T1 sequence (looked up): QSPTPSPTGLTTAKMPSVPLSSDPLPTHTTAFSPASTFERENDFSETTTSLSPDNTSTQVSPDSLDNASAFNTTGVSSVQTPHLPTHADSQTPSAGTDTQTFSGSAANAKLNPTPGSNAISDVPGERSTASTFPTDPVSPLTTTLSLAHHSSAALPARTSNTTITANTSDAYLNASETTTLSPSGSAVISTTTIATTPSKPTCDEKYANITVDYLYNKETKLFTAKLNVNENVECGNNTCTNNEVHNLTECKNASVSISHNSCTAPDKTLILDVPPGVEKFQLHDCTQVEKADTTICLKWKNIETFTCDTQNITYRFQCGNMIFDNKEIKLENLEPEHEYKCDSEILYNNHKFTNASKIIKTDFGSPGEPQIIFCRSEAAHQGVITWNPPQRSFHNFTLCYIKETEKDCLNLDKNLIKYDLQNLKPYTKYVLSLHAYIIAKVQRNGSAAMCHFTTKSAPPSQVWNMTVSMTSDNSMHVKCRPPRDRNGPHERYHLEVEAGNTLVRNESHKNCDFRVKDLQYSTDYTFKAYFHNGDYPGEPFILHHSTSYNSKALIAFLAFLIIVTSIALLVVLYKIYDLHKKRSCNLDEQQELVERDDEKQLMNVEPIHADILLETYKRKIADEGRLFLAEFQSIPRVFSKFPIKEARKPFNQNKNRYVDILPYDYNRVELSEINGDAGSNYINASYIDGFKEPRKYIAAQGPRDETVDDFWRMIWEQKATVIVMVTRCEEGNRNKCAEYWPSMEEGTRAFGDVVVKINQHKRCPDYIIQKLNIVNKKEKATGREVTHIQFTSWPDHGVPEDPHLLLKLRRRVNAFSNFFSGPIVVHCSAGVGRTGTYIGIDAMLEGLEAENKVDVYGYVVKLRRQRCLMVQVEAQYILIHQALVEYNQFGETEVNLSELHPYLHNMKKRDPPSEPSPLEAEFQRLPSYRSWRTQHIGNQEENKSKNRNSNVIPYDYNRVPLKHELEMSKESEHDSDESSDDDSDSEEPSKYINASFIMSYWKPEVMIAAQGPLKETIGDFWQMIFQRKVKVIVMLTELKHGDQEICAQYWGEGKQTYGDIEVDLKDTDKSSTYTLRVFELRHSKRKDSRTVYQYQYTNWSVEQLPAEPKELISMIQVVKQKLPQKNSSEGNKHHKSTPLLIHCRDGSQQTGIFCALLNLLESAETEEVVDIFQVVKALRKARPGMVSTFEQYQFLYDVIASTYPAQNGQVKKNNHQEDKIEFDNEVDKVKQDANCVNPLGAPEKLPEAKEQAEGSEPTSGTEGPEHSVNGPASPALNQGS
Text: Cytotrol cells (Beckman Coulter) were initially used to determine the binding of naïve BC8 antibody to those cells versus control 18B7 antibody (nonspecific control antibody against the fungal polysaccharide glucuronoxylomannan) by flow cytometry (FIG. 13A). The cells were taken up in RPMI medium, and the secondary antibody was PE labeled rat anti-mouse IgG1 from Biolegend.
Finally, we performed the side by side comparison of the binding of DOTA-BC8 sample to Cytotrol cells by flow cytometry (FIG. 14B), followed by immediate radiolabeling of the same sample with ²²⁵Ac and binding of the radiolabeled sample to Cytotrol cells (FIG. 14A). The binding of the DOTA-BC8 to the cells by flow cytometry (around 60% of the naïve BC8 binding) matched that of radiolabeled ²²⁵Ac-DOTA-BC8 to Cytotrol cells.

| Molecule | immunoreactivity (mouse CD45 (mouse)) | binding relative to naïve BC8 (human CD45) | immunoreactivity relative to naïve BC8 (human CD45) |
| --- | --- | --- | --- |
| ^131I-labeled anti-mouse pan-CD45 antibody 30F11 | > 95% |  |  |
| ^177Lu-labeled anti-mouse pan-CD45 antibody 30F11 | > 95% |  |  |
| B1 |  | ~60% | ~70% |
